Results on 8 molecules are retold here after patent publication US20220298218A1 (ANTAG THERAPEUTICS, published 2022).

Where no end group is shown, it is not given here. [ ]: non-standard residue; d: D form. The star is where a group is joined. phenyl lactic acid = phenyl lactic acid at the N-terminus; C16 diacid = O=C(O)CCCCCCCCCCCCCCC(=O)*; Nle = CCCC[C@H](N)C(=O)O; Aib = CC(C)(N)C(=O)O

Sequences and labels used below:
T1: human GIP receptor (human, UniProt P48546 22-466)
T1 sequence (looked up): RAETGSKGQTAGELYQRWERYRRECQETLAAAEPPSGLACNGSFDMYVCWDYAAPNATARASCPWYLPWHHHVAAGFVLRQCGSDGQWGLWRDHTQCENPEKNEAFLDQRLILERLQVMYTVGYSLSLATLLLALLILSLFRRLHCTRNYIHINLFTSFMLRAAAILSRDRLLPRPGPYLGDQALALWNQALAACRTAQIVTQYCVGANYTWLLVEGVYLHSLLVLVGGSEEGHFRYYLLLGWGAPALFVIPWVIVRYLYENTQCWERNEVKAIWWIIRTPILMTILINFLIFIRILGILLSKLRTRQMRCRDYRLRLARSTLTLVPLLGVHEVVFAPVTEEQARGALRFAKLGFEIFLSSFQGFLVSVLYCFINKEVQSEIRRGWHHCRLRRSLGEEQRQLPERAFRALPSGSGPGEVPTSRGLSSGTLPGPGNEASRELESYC

B1: AT673 (peptide)
peptide: EGTFISEYSI[Aib]LEKIK(C16 diacid)QQEFVEWLLAQKPSSGAPPPS-OH
modifications: N-terminus assumed
SMILES: CC[C@H](C)[C@H](NC(=O)[C@H](CCCCN)NC(=O)[C@H](CCC(=O)O)NC(=O)[C@H](CC(C)C)NC(=O)C(C)(C)NC(=O)[C@@H](NC(=O)[C@H](CO)NC(=O)[C@H](Cc1ccc(O)cc1)NC(=O)[C@H](CCC(=O)O)NC(=O)[C@H](CO)NC(=O)[C@@H](NC(=O)[C@H](Cc1ccccc1)NC(=O)[C@@H](NC(=O)CNC(=O)[C@@H](N)CCC(=O)O)[C@@H](C)O)[C@@H](C)CC)[C@@H](C)CC)C(=O)N[C@@H](CCCCNC(=O)CCCCCCCCCCCCCCC(=O)O)C(=O)N[C@@H](CCC(N)=O)C(=O)N[C@@H](CCC(N)=O)C(=O)N[C@@H](CCC(=O)O)C(=O)N[C@@H](Cc1ccccc1)C(=O)N[C@H](C(=O)N[C@@H](CCC(=O)O)C(=O)N[C@@H](Cc1c[nH]c2ccccc12)C(=O)N[C@@H](CC(C)C)C(=O)N[C@@H](CC(C)C)C(=O)N[C@@H](C)C(=O)N[C@@H](CCC(N)=O)C(=O)N[C@@H](CCCCN)C(=O)N1CCC[C@H]1C(=O)N[C@@H](CO)C(=O)N[C@@H](CO)C(=O)NCC(=O)N[C@@H](C)C(=O)N1CCC[C@H]1C(=O)N1CCC[C@H]1C(=O)N1CCC[C@H]1C(=O)N[C@@H](CO)C(=O)O)C(C)C
B2: AT669 (peptide)
peptide: EGTFISDYSIA[Nle]DKIK(C16 diacid)QQDFVEWLLAQKPSSGAPPPS-OH
modifications: N-terminus assumed
SMILES: CCCC[C@H](NC(=O)[C@H](C)NC(=O)[C@@H](NC(=O)[C@H](CO)NC(=O)[C@H](Cc1ccc(O)cc1)NC(=O)[C@H](CC(=O)O)NC(=O)[C@H](CO)NC(=O)[C@@H](NC(=O)[C@H](Cc1ccccc1)NC(=O)[C@@H](NC(=O)CNC(=O)[C@@H](N)CCC(=O)O)[C@@H](C)O)[C@@H](C)CC)[C@@H](C)CC)C(=O)N[C@@H](CC(=O)O)C(=O)N[C@@H](CCCCN)C(=O)N[C@H](C(=O)N[C@@H](CCCCNC(=O)CCCCCCCCCCCCCCC(=O)O)C(=O)N[C@@H](CCC(N)=O)C(=O)N[C@@H](CCC(N)=O)C(=O)N[C@@H](CC(=O)O)C(=O)N[C@@H](Cc1ccccc1)C(=O)N[C@H](C(=O)N[C@@H](CCC(=O)O)C(=O)N[C@@H](Cc1c[nH]c2ccccc12)C(=O)N[C@@H](CC(C)C)C(=O)N[C@@H](CC(C)C)C(=O)N[C@@H](C)C(=O)N[C@@H](CCC(N)=O)C(=O)N[C@@H](CCCCN)C(=O)N1CCC[C@H]1C(=O)N[C@@H](CO)C(=O)N[C@@H](CO)C(=O)NCC(=O)N[C@@H](C)C(=O)N1CCC[C@H]1C(=O)N1CCC[C@H]1C(=O)N1CCC[C@H]1C(=O)N[C@@H](CO)C(=O)O)C(C)C)[C@@H](C)CC
B3: AT670 (peptide)
peptide: EGTFISDYSIAKDKIK(C16 diacid)QQDFVEWLLAQKPSSGAPPPS-OH
modifications: N-terminus assumed
SMILES: CC[C@H](C)[C@H](NC(=O)[C@H](CO)NC(=O)[C@H](Cc1ccc(O)cc1)NC(=O)[C@H](CC(=O)O)NC(=O)[C@H](CO)NC(=O)[C@@H](NC(=O)[C@H](Cc1ccccc1)NC(=O)[C@@H](NC(=O)CNC(=O)[C@@H](N)CCC(=O)O)[C@@H](C)O)[C@@H](C)CC)C(=O)N[C@@H](C)C(=O)N[C@@H](CCCCN)C(=O)N[C@@H](CC(=O)O)C(=O)N[C@@H](CCCCN)C(=O)N[C@H](C(=O)N[C@@H](CCCCNC(=O)CCCCCCCCCCCCCCC(=O)O)C(=O)N[C@@H](CCC(N)=O)C(=O)N[C@@H](CCC(N)=O)C(=O)N[C@@H](CC(=O)O)C(=O)N[C@@H](Cc1ccccc1)C(=O)N[C@H](C(=O)N[C@@H](CCC(=O)O)C(=O)N[C@@H](Cc1c[nH]c2ccccc12)C(=O)N[C@@H](CC(C)C)C(=O)N[C@@H](CC(C)C)C(=O)N[C@@H](C)C(=O)N[C@@H](CCC(N)=O)C(=O)N[C@@H](CCCCN)C(=O)N1CCC[C@H]1C(=O)N[C@@H](CO)C(=O)N[C@@H](CO)C(=O)NCC(=O)N[C@@H](C)C(=O)N1CCC[C@H]1C(=O)N1CCC[C@H]1C(=O)N1CCC[C@H]1C(=O)N[C@@H](CO)C(=O)O)C(C)C)[C@@H](C)CC
B4: AT668 (peptide)
peptide: EGTFISDYSIALDKIK(C16 diacid)QQDFVEWLLAQKPSSGAPPPS-OH
modifications: N-terminus assumed
SMILES: CC[C@H](C)[C@H](NC(=O)[C@H](CO)NC(=O)[C@H](Cc1ccc(O)cc1)NC(=O)[C@H](CC(=O)O)NC(=O)[C@H](CO)NC(=O)[C@@H](NC(=O)[C@H](Cc1ccccc1)NC(=O)[C@@H](NC(=O)CNC(=O)[C@@H](N)CCC(=O)O)[C@@H](C)O)[C@@H](C)CC)C(=O)N[C@@H](C)C(=O)N[C@@H](CC(C)C)C(=O)N[C@@H](CC(=O)O)C(=O)N[C@@H](CCCCN)C(=O)N[C@H](C(=O)N[C@@H](CCCCNC(=O)CCCCCCCCCCCCCCC(=O)O)C(=O)N[C@@H](CCC(N)=O)C(=O)N[C@@H](CCC(N)=O)C(=O)N[C@@H](CC(=O)O)C(=O)N[C@@H](Cc1ccccc1)C(=O)N[C@H](C(=O)N[C@@H](CCC(=O)O)C(=O)N[C@@H](Cc1c[nH]c2ccccc12)C(=O)N[C@@H](CC(C)C)C(=O)N[C@@H](CC(C)C)C(=O)N[C@@H](C)C(=O)N[C@@H](CCC(N)=O)C(=O)N[C@@H](CCCCN)C(=O)N1CCC[C@H]1C(=O)N[C@@H](CO)C(=O)N[C@@H](CO)C(=O)NCC(=O)N[C@@H](C)C(=O)N1CCC[C@H]1C(=O)N1CCC[C@H]1C(=O)N1CCC[C@H]1C(=O)N[C@@H](CO)C(=O)O)C(C)C)[C@@H](C)CC
B5: AT650 (peptide)
peptide: EGTFISDYSIAMDKIK(C16 diacid)QQDFVNWLLAQKPSSGAPPPS-NH2
modifications: N-terminus assumed
SMILES: CC[C@H](C)[C@H](NC(=O)[C@H](CO)NC(=O)[C@H](Cc1ccc(O)cc1)NC(=O)[C@H](CC(=O)O)NC(=O)[C@H](CO)NC(=O)[C@@H](NC(=O)[C@H](Cc1ccccc1)NC(=O)[C@@H](NC(=O)CNC(=O)[C@@H](N)CCC(=O)O)[C@@H](C)O)[C@@H](C)CC)C(=O)N[C@@H](C)C(=O)N[C@@H](CCSC)C(=O)N[C@@H](CC(=O)O)C(=O)N[C@@H](CCCCN)C(=O)N[C@H](C(=O)N[C@@H](CCCCNC(=O)CCCCCCCCCCCCCCC(=O)O)C(=O)N[C@@H](CCC(N)=O)C(=O)N[C@@H](CCC(N)=O)C(=O)N[C@@H](CC(=O)O)C(=O)N[C@@H](Cc1ccccc1)C(=O)N[C@H](C(=O)N[C@@H](CC(N)=O)C(=O)N[C@@H](Cc1c[nH]c2ccccc12)C(=O)N[C@@H](CC(C)C)C(=O)N[C@@H](CC(C)C)C(=O)N[C@@H](C)C(=O)N[C@@H](CCC(N)=O)C(=O)N[C@@H](CCCCN)C(=O)N1CCC[C@H]1C(=O)N[C@@H](CO)C(=O)N[C@@H](CO)C(=O)NCC(=O)N[C@@H](C)C(=O)N1CCC[C@H]1C(=O)N1CCC[C@H]1C(=O)N1CCC[C@H]1C(=O)N[C@@H](CO)C(N)=O)C(C)C)[C@@H](C)CC

This assay has as its target T1, human GIP receptor. Kind of assay: cell-based or functional assay.
With B1, the “cAMP agonism % Emax” value was 0%, the “cAMP antagonism” value turned out to be 0.136 nM, the “cAMP antagonism % inhib” value is 94% and the “cAMP antagonism pIC50” value is 9.9.

As to B2, the “cAMP agonism % Emax” value amounted to 0%, the “cAMP antagonism” value came to 3.35 nM, the “cAMP antagonism % inhib” value was found to be 95% and the “cAMP antagonism pIC50” value is 8.5.

In the case of EGTFISDYSI[Aib][Nle]DKIK(C16 diacid)QQDFVEWLLAQKPSSGAPPPS-OH [AT667], the “cAMP agonism % Emax” value is 4%, the “cAMP antagonism” value amounted to 0.736 nM, the “cAMP antagonism % inhib” value was determined as 86% and the “cAMP antagonism pIC50” value is 9.1.

Take B3: the “cAMP agonism % Emax” value amounted to 0%, the “cAMP antagonism” value was determined as 10 nM, the “cAMP antagonism % inhib” value was 92% and the “cAMP antagonism pIC50” value worked out at 8.

In the case of EGTFISDYSI[Aib]MDKIK(C16 diacid)QQDFVEWLLAQKPSSGAPPPS-OH [AT665], the “cAMP agonism % Emax” value was 0%, the “cAMP antagonism” value turned out to be 0.15 nM, the “cAMP antagonism % inhib” value is 88% and the “cAMP antagonism pIC50” value is 9.8.

As for {phenyl lactic acid}-PGTFISDYSIAMDKIKQQDFVNWLLAQKPSSGAPPPSK(C16 diacid)-NH2 (not fully specified) [AT652], the “cAMP agonism % Emax” value came to 17%, the “cAMP antagonism” value amounted to 10.6 nM, the “cAMP antagonism % inhib” value amounted to 60% and the “cAMP antagonism pIC50” value was 8.

Turning to B4, the “cAMP agonism % Emax” value came to 0%, the “cAMP antagonism” value amounted to 0.944 nM, the “cAMP antagonism % inhib” value was 92% and the “cAMP antagonism pIC50” value stood at 9.

As to B5, the “cAMP agonism % Emax” value came to 0%, the “cAMP antagonism” value was 3.69 nM, the “cAMP antagonism % inhib” value amounted to 94% and the “cAMP antagonism pIC50” value amounted to 8.4.
